Here are results for one substance from patent US20120220522A1.

For this assay, the target named is insulin receptor (IR), B-isoform (UniProt P06213). Put plainly: relative binding affinity to insulin receptor, displacement of 125I-human insulin. Background: Loss of bound radioactivity is the signal in a displacement assay; it reports binding, not function.

Take “ester insulin lispro folded (2) (ligand)”: the relative activity (relative binding affinity) is under 0.5%.
